Results published in US20250270343A1 (Alector, published 2025).

T1: full-length untagged human GPNMB expressed on cells (human, UniProt Q14956 23-572)
T1 construct: also used here for GPNMB on human monocyte-derived macrophages in the functional assays; also called huGPNMB; Freestyle293-huGPNMB+
T1 sequence: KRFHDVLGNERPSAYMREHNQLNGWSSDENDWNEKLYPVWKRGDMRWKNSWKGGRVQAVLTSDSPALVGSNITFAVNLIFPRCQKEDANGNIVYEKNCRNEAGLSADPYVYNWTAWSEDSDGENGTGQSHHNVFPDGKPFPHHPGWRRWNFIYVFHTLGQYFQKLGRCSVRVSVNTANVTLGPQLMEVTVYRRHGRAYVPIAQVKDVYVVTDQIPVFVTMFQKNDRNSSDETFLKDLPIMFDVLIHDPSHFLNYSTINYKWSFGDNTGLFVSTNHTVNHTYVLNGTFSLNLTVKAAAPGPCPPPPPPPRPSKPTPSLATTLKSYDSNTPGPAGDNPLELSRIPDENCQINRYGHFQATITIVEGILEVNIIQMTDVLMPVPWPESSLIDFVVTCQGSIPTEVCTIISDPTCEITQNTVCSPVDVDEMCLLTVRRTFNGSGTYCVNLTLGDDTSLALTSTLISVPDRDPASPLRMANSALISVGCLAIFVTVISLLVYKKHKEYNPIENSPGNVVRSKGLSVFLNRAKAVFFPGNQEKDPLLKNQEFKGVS

T2: soluble cynomolgus GPNMB (recombinant extracellular domain) (cynomolgus, UniProt Q14956 23-499 (human entry), limits assumed)
T2 chain: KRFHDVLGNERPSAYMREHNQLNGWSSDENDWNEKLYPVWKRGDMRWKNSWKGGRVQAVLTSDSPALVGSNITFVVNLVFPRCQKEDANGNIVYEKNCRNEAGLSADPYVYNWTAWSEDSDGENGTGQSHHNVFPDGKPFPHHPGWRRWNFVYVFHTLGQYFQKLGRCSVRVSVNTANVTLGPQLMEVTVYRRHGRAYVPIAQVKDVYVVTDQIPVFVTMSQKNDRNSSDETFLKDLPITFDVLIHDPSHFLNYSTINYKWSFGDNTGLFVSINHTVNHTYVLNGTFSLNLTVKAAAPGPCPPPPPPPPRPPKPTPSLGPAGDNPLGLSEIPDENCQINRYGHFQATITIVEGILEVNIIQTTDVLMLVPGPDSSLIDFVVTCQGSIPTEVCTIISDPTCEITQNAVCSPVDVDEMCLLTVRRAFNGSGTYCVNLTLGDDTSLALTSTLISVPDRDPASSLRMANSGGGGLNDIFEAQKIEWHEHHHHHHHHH


Key:
[1] = molecular target: T1, full-length untagged human GPNMB …; test: FACS titration, FS293-huGPNMB+ cells
Description: Cell-based binding measurements were also performed to measure the apparent affinities of anti-GPNMB antibodies of the present disclosure to cell-surface expressed GPNMB. Serial dilutions of the monoclonal anti-GPNMB antibodies were added to 100,000 Freestyle293-huGPNMB+ or B16F10 cells and allowed to achieve binding equilibrium at 4° C. After addition of fluorescently labeled secondary antibody and brief washing steps, MFI values as a function of titrated antibody concentration was recorded via FACS analysis. Curves were fit using nonlinear regression analysis with Graphpad Prism 6 software.

[2] = molecular target: T1, full-length untagged human GPNMB …; test: cell-based or functional assay
[3] = molecular target: T2, soluble cynomolgus GPNMB (recombinant …); test: SPR binding
Description: Binding kinetics of human anti-GPNMB IgG1 antibodies of the present disclosure to human, cynomolgus, and mouse GPNMB were evaluated using a Carterra LSA instrument (Carterra, Salt Lake City, UT). […] A HC200M sensor chip (Carterra) was activated using the single channel flow cell with a 7-minute injection of a 1:1:1 mixture of 100 mM MES pH 5.5, 100 mM sulfo-NHS, 400 mM EDC (all reconstituted in MES pH 5.5; 100 μl of each mixed in vial immediately before running assay). After switching to the multi-channel array flow cell, the antibodies were injected over the activated chip in a 96-spot array for 15 minutes. The remaining unconjugated active groups on the chip were then blocked by injecting 1M Ethanolamine pH 8.5 (Carterra) for 7 minutes using the single channel flow cell.
After priming with running buffer (HBS-EP+, Teknova) with 0.5 mg/ml BSA (Sigma), the immobilized anti-GPNMB antibodies were tested for their ability to bind to several forms of recombinant GPNMB extracellular domain, including human, cynomolgus, and mouse orthologs as described above. Estimates of affinity were generated by injecting each analyte over the entire antibody array using the single channel flow cell. GPNMB analytes were diluted to 2.5, 7.4, 22, 67, 200, and 600 nM in running buffer, and injected in serial from lowest to highest concentration without regeneration. Two buffer blanks were run between each series (one species per series). Data were processed and analyzed using Kinetics high-throughput kinetics analysis software (Carterra).

| Binder | EC50 [1] | CD40 (FoB) [2] | CD80 (FoB) [2] | GCase (FoB) [2] | PDL1 (FoB) [2] | binding result [3] |
| --- | --- | --- | --- | --- | --- | --- |
| anti-GPNMB antibody GPN-35 (antibody, human IgG1, V domains shown, chimeric) VH: EVQLVESGGGSVRPGRSLKLSCAAAGFTFSDYYMTWVRQAPTKGLEWVASINHDGGGTYYRDSVKGRFTISRDNARSSLYLQMDSLRSEDTGTYYCTTRAGWHWGQGVMVTVSS VL: DIQMTQSPASLSASLGETVSIECLASEDIYNYLTWYQQKPGKSPQVLIYSASGLQDGVPSRFSGSGSGRQYSLKINGLESEDAATYFCLQDSEYPLTFGSGTKLEIK | 1.33 nM | 1.31 FoB | 1.22 FoB | 0.9 FoB | 1.3 FoB |  |
| anti-GPNMB antibody GPN-30 (antibody, human IgG1, V domains shown, chimeric) VH: EVQLQQSGPELVNPGASVRISCKASGYSFTGYYMNWVKQSPEKSLEWIGEINPNTGFTTYNQNFKAKATLTVDKSSSTAYIQLKSLTSEDSAVYYCTRPSPSFDYWGQGTTLTVSS VL: DIQMTQSPSSLSASLGERGSLTCRASQEISGHLSWLQQKPDGTIKRLIYAASTLDSGVPKRFSGSRSGSDYSLTISSLESEDFADYYCLQYASYPYTFGGGTKLEIK | 1.12 nM | 1.75 FoB | 1.34 FoB | 1.27 FoB | 1.64 FoB |  |
| anti-GPNMB antibody GPN-07 (antibody, human IgG1, V domains shown, chimeric) VH: QVQLQQSGAEQVKPGASVKLSCKASGYTFTSYYMYWVKQRPGQGLEWIGEINPSNGGTYFNEKFKSKATLTVDKSSSTAYMHLSSLTSEDSAVYYCTRGGTYYAYWGQGTLVTVSA VL: DIQMTQSPSSLSASLGERVSLTCRASQEMSGHLSWLQQKPDGTIKRLIYAASTLDSGVPKRFSGSRSGSDYSLTISSLESEDFADYYCLQYASYPYTFGGGTKLEIK | 18.4 nM | 1.39 FoB | 1.29 FoB | 2.13 FoB | 1.67 FoB |  |
| anti-GPNMB antibody GPN-09 (antibody, human IgG1, V domains shown, chimeric) VH: QVQLQQSGAELVKPGASVKLSCKASGYTFTSYYIYWVKQRPGQGLEWIGEINPSNGGTYFNEKFKNKATLTVDKSSSTAYMQLSSLTSEDSAVYYCTRGGNYYAYWGQGTLVTVSA VL: DIQMTQSPSSLSASLGERVSLTCRASQEISGHLGWLQQKPDGTIKRLIYAALTLDSGVPKRFSGSRSGSDYSLTISSLESEDFADYYCLQYASYPYTFGGGTKLEIK | 1.31 nM | 1.49 FoB | 1.19 FoB | 1.26 FoB | 1.5 FoB |  |
| anti-GPNMB antibody GPN-37 (antibody, human IgG1, V domains shown, chimeric) VH: EVQLVESGGGLVQPGRSLKLSCAASGFTFSSKSGMAWVRQAPTKGLEWVASISNGGGDTYYRDSVKGRFTISRDNAKNTQYLQMDSLRPEDTATYYCARHRDYGYDAYFDYWGQGVMVTVSS VL: DIQMTQSPASLSASLGETVTIECLASEDIYSSLAWYQQKPGKSPQLLIYDASSLQDGVPSRFSGSESGTQYSLEINSLQSEDAATYFCQQHHDYPYTFGAGTKLELK | 0.75 nM |  |  | 1.01 FoB |  |  |
| anti-GPNMB antibody GPN-34 (antibody, human IgG1, V domains shown, chimeric) VH: EVKLVESGGGLVQPGRSLKLSCAASGFNFYDYWMGWVRQAPGKGLEWIGEINKDSRTINYTPFLKDRFTISRDNAQNTLYLQMSKLGSEDTAIYYCAREGRVPFDYWGQGVMVTVSS VL: DIQMTQSPSSMSVSLGDTVTIPCRASQDVGSYVNWFQQKPGKSPRHMIYRATNLADGVPSRFSGSRSGADYSLTISSLESEDVADYHCQQYAEYPLTFGSGTKLEIK | 0.41 nM | 1.52 FoB | 1.36 FoB | 1.76 FoB | 1.56 FoB |  |
| anti-GPNMB antibody GPN-52 (antibody, human IgG1, V domains shown, chimeric) VH: DVQLQESGPGLVKPSQTVFLTCTVTGISITTGNYRWSWIRQFPGNKLEWIGYIYYSGTITYNPSLTSRITITRDTPKNEFFLEMNSLTAEDTATYYCARDLTHWYFDVWGTGTTVTVSS VL: not shown | 1.27 nM | 1.53 FoB | 1.46 FoB |  | 1.44 FoB |  |
| anti-GPNMB antibody GPN-61 (antibody, human IgG1, V domains shown, chimeric) VH: DVQLQESGPGLVKPSQTVFLTCTVTGISITTGNYRWSWIRQFPGNKLEWIGYIYYSGTITYNPSLTSRTTITRDTPKNQFFLEMSSLTAEDTATYFCARDLRHWYFDVWGTGTTVTVSS VL: not shown | 7.25 nM | 1.61 FoB | 1.5 FoB | 1.46 FoB | 1.52 FoB |  |
| anti-GPNMB antibody GPN-43 (antibody, human IgG1, V domains shown, chimeric) VH: EVQLQQSGPELVKPGASVKISCKASGYTFTDYYMNWVRQSHGKSLEWIGDINPYHGGSTYNQKIKVKATLTVDKSSSTAYMELRSLTSEDSAVYYCARNWPYFDYWGQGTTLTVSS VL: DIQMTQSPASLSASVGETVTITCRASENIYSFLVWYQQKQGKSPQLLVYNAKTLAEGVPSRFSGSGSGTQFSLKISSLQPEDFGSYYCQHHFGTPPYTFGGGTKLEIK |  | 1.06 FoB | 1.08 FoB | 1.01 FoB | 1.05 FoB | binds |
| anti-GPNMB antibody GPN-03 (antibody, human IgG1, V domains shown, chimeric) VH: QVQLQQSGPELVKPGASVKLSCKASGYTFTNYYMYWVKQRPGQGLEWIGEINPRNGGTNFNEKFKSKATLTVDKSSSTAYMQLSSLTFEDSAVYYCTTGLAYWGQGTLVTVSA VL: DVVMTQTPLSLPVSLGDQASISCRSSQSLVHSDGNTYLHWYLQKPGQSPKLLIYKVSTRFSGVPDRFSGSGSGTDFTLKISRVEAEDLGVYFCSQSTHVPWTFGGGTKLEIK | 3.38 nM | 1.45 FoB | 1.4 FoB | 1.47 FoB | 1.32 FoB |  |
| anti-GPNMB antibody GPN-06 (antibody, human IgG1, V domains shown, chimeric) VH: QVQLQQSGAELVKPGASVKLSCKASGYTFTNYYMYWVKQRPGQGLEWIGEINTRNGGTNFNEKFKSKATLTVDKSSSTAYMQLSSLTSEDSAVYYCTTGFAYWGQGTLVTVSA VL: DIQMTQSPASLSASVGETVTITCRASENIYSYLVWYQQNQGKSPQLLVYNAKTLAEGVPSRFSGSGSGTQFSLKINSLQPEDFGTYYCQHHYGTPFTFGSGTKLEIK | 1.61 nM | 1.44 FoB | 1.38 FoB | 1.58 FoB | 1.61 FoB |  |
| anti-GPNMB antibody GPN-42 (antibody, human IgG1, V domains shown, chimeric) VH: DVKLVESGEDLVKPGGSLKLSCAASGFTFSSYAMSWVRQTPEKRLEWVAYISSGGDYIYYADTVKGRFTISRDNARNTLYLQMSSLKSEDTAMYYCTRDRYYDYDVRDYYTMDYWGQGTSVTVSS VL: DVMMTQTPLSLPVSLGDQASISCRSSQSLVHSNGNTYLHWFLQKPGQSPKLLIFRVSNRFSGVPDRFSGRGSGTDFTLKISRVEAEDLGVYFCSQTTHVPRTFGGGTTLEIK |  |  |  |  |  | binds |
| anti-GPNMB antibody GPN-08 (antibody, human IgG1, V domains shown, chimeric) VH: QVQLQQPGAELVKPGASVKLSCRASGYTFTSYWLHWVKQRPGQGLEWIGEINPSDGRTNYIEKVKTKATLTVDKSSSTAYMQLSSLTSEDSAVYYCARSGGNYAWFAYWGQGTLVTVSA VL: DIVMTQSHKFMSTSVGDRVSITCKASQDVSPSVAWYQQRPGQSPKLLIYSASYRYTGVPDRFTGSGSGTDFTFTISSVQAEDLAVYYCQQHYSIPLTFGAGTKLELK | 0.87 nM | 1.35 FoB | 1.29 FoB | 1.18 FoB | 1.59 FoB |  |
